Measurements from the DeepSol protein solubility set.

assay: soluble on expression in E. coli; label from the status in PepcDB or PDB records

Soluble on expression in E. coli, not soluble:
MGSDKIHHHHHHMIIDAHIHCSGDEKVDDVLQALDQAQVDKAVVLAPFLSGPYSMHDSASLRSANQYLSRLIGHHTDRLIGFAVINPSLEGACQDLVSAHELGLHGLKMVPAGWYPYDDCARDVYETAARLKIPILFHSGIFIDGKSGRFCRPSFYEAIRDYPDLRVTLAHLGWPWSDEANAVGLIDLINGVPPDNSQFRFDISFGAPPVYRLEVLRKAIDVLTPDLLQFGSDVFLPCSADLIKSRIDEVLMLLERLEVDKSSRDRIMGGTAAAWLGIN, MGSDKIHHHHHHMIIDRLFDSVEKKGHVCLGLDTDITYVPEEFCKKFNSIEDAIFNFNKKIIDATLDVVSCYKVQIAYYEAYGLKGLLAYKRTLEYLREKKAIAIADIKRGDIAKTAEMYAKAHFEGDFEADFVTLNPYMGLDGIEPYMPYIEKMEKGLFILLRTSNKGAYDIQYIKTQGGKNVYDEVGEKIYDLGQKATGRSKYSSIGAVVGCTHVEEGVEIRNKFKNMFFLIPGYGAQGGTAKEVSLYLREGNGGVVNSSRGILLAYKKEENGEKIFDECARLAAINMRDEIRKTL, MGSDKIHHHHHHMIIMRFLIKVKPEERKFRVPYNHQYFLQGLIYNRIKLTNPRLSTFLHETKGPKLFTYSLFMTERREHPKGLPYFLGYRRGFFYFSTCIPEIAEAFITGLFREPEITLWGEKFYLEEVKTLKEPKKFSGSTFITLSPIAVTMEKGGKRYDVSPLEEEFYALIRENLKDKYVMIKGEKPPDDFEMEIIAAKPKRFEVKPGIYQMAWHLVFRAYGDDELIRVGYVVGFGEKNSLGFGMVKVDEQRKRRKNIGSFQESMSFNENRELETGT, MGSDKIHHHHHHMIKICSVAFLSLLLSASSLFAQTKTFAGADYSQGIVFVMENNQMVWKHKAPDSNDLWILPNGNILFTTGHGVLEMTRQNDTIFHYESKSPVFACQRLKNGNTFVGECVTGRMLEISPKGKIVKETCILPKGVKDGGFAFMRNARRLDNGHFLVAHYGDQCVKEYDANGKVVWKLDVPGGPHSLTRLPNGHTLIAVADKDQNPRLIEVTPEGKTIWEISNADIPGKPLKFLGGFQYFSDGRFLITNWTGHVNPKEKVHLLLVDRQKNVLYSLENTPELQTMSSVYSTDKPAGVASYH, MGSDKIHHHHHHMILKTKLFGKVYQFTSVKEVLAKANEEKSGDKLAGVAANSAEERVAAKVVLSELSLNDLFNNPVVDYDEDEVTRIIIDQVNMRIFESIKHWTVAELREFILSSETTDFDIKRISRGLTSEMIAAVCKLMSNMDLIVGAKKINIEKTANTTIGRPGTFSNRLQPNHPTDNVDGIMASVMEGLSYGAGDALIGLNPVDDSTESVKRILNKFEEFRSEWEIPTQTCVLAHVTTQMEAMRQGAPTGLVFQSIAGSEKGNTAFGLNAEILAEAQDLALHSGQAAGPNVMYFETGQGSELSSEANFGADQVTMEARCYGLAKKFDPYIVNTVVGFIGPEYLYDSKQVIRAGLEDHFMGKLTGISMGCDVCYTNHMKADQNDMENLAMLLATAGCTYIMGIPHGDDVMLNYQTTGFHETATIRETLGLRPIKEFEEWMEKMGLMENGKLTSRAGDASVFIK, MGSDKIHHHHHHMILSDPRFVALSNWLYQYFGDKVAINLICGDASFRRYFRLHHQGIDYIVSDSPIDLVPIAPFLAMAKAYQHAGLLVPEVLATCNDYGFVLQTDVGELQLLSVLNKDNVTDYYKQALNLLPVIATVTETDNGPLADYDDTFVARELAIFVDWLLKEHLDYVLTDNEQQMIATTFSALTDNVLAQPKVGMHRDYHSRNLLINDQALAVIDFQDAVHGPVTYDAVSLLRDCYVRWPDDIVNHLMRYHYQLAIAHQLIDENVDFATYTKWFDLMGLQRHIKAAGIFARLYHRDGKRGYLADIPLTLQYVADIGIKYPQIADFSLWIHKVILPLVNHKNTHEVVSEA, MGSDKIHHHHHHMILSEVRIHNFRNIASTSLILNPNFNCITGPNGGGKTSLLEALYMLSCAHSFRSREITPIISYGQNQLNVFAHAYDESTISVQKSITDGTQIKLNNQFCCTTSQLAYALPCQVIYSDIFQIIDAGPSVRRSLLDWGLFHVKHDYLKIWKDYKRILSQRNALLKSRATYDHFIPWDQQLSQLANQLDKARNDYFLQWQPKFYQVLSDLTNISCTVEYYKGWDRKNAGQNMEELLQKSFDSDRKKLYTQYGPHQADLIISTEQYRVKHTLSRGQQKIILIALKLAQGQLLDKDCLYLIDDLAAELDDYHQRNLIKYLTQQKGQFVITNLINNNNYDILPIDSGLFEVNCGAIKNL
